Data reported in the DeepSol protein solubility set.

Test: soluble on expression in E. coli; label from the status in PepcDB or PDB records

Sequence	soluble on expression in E. coli
QKTGIYDSLRLKLEIVKFYSPNERDAAFHSGNVEGTVIDYTGAAMQQAGGIDLQLVMRLDGYFRLVMSKDYTGESLETLKGKNLGISRNTVIEYTTDRIINTAGLDESEITKTEVNKIPLRLEMLRSGQIDAAVLPDPFITIAMADG	not soluble
MDDELRGLLARYARGELSADDARRAILRYPKWRVAEIDGELETVALDDGTPMLIAESSASDGREYSGLELVRDIAPLVGGLSFDPDEPWGSAFRPGALPELQNWARTVELEDAVAKPGPGQRDLLYEGPWWVAVSPGTGRPAVHRADGLDVITIMTAPDAAATFRRTERHRGLDVVRLGPALWGDLAKRSDFDGVRLNPLRPLAQLWPPHVPAMLVAGCDPRPNAEPLPARTVAEIHLWLDQHGARQEKRELSNRATPVGEVTVARAWWNYDRREIAFTRVAPASDTEGLGSVPSRILCAGKLRQSIQSKLAGLPRLTWRADAWHRQRAALAVGWALELEKLVCGERVPFAALRTPEGAHLWHLEPQAFTARAIRKLRDRAASFR	soluble
MRNNPLIPKSKLPNLGTTIFTQMSALAQKHQAINLSQGFPDFDGPRYLHERLAYHVAQGANQYAPMTGAQALREAIADKTAEIYGYRPDDVSDITVTAGATEALYAAITALVRAGDEVICFDPSYDSYAPAVALSGGVLKRIALTPPHFRVDWQAFSALLSERTRLVILNTPHNPTATVWRQADIEALWQAIGEREIYVLSDEVYEHICFAAEGHASVLAHPQLRERAVAVSSFGKTFHMTGWKIGYCVAPAAISAEIRKVHQYLTFCVNTPAQLALADMLRAAPEHYRALPDFYRKKRDVLVNALAQSRLKVLPCEGTYFLLIDYSAVSTLNDVEFCQWLTEEVGVAAIPLSVFCAAPFPHQLIRLCFAKQESTLLAAAERLCKL	not soluble
MNDSSLKKALSQNSISSAPRRPQKLGSVQSIVRNESDKNVPSPFEEITLSDDDEEAPAKKPVKCATCARDMTLWMNSRRDIHVKVCKAKQSEKEKETTRKSKTLTETIEKDDQVYEKPSSKTHLFEKPFEKPQELPKSWELSKNNVKFARIAEDDEENRKRKRPRSFAVVELAPKKCQCEVLTTLHSRFIDEFHSKSIKNQKKREEGVTEHAFQMKKMIEKISRYEQLSSDMQKVLDDNSEQLPTHIFITCSDGHRVKCQTMILKHRTSLIRLNPKSENIQVEHTKEVVKAWISFVFTANIEWNDDDKDGVRDLASKYGPVGLDLIVKNDKEEDLEKVDDVEDVVEPEAKIDSVVADPVEIEPTASHSDPIELDKSVNYFTSDDPFFGFGKAVENVEDDAEQIMEDKPHESVHSTPQKPTTNVTMDSFDEWSNQPSTNLPTTSNVITPIRNITSKAVFGSHVKILKTNDITPMPAFDSMEEAELKERMKEIGMRPKGKKAMIQILKKAYITLHPEICSGTPTIRPLVRSASLEKVSEQGGKGGRKTIKTKTLSERMIASPKKVSPKKQGVKNAISDETSKNVSNVSDDLDEDNDGDKTLNISNDEREVGKIWGDDVGDDEEDDDDMSASSTSGKHDLSALKLAFLTWLRSDQNTVLHEHILSLQPVSLEEMLIRLEKADGPLGRIGKGKLVKLLEMLKITYQLPQKTGRARGGYKRRL	not soluble
MNTEICSILERQARIFNVQKYSLYDGPGIRTLIFFKGCPLRCKWCSNPEGLERKYQVMYMEDSCIHCGNCIPVCPVNIHSFANRDGETVPTHYEPPKHTINRNIDCVGCRKCETICPKKALSIAGKDLKISEVLEIIQQDALFYLSSGGGVTLGGGEVTAQPEFATNLLMECQRMGINTAIETCGYAKLDTLLMIAQFTDLFLYDLKHIDPERHYELTGVRNERILDNLTELIHRGFNIKIRMPLIRGMNDSQDTIRRTMEFLQPFSSCKNFQGIDLLPYHKLGINKYKQLDMNYTITEDLSFKAEELDEIARIIGGYDLRAAVIRH	not soluble
TPVLIRQLANKDRAREFSFLKDLGKDIAHFRFLGSFSTHAKVHDQLMDIDLHNRMAYIALAYDNDELTEIGVARYGAYEGDAHCEFAIAVSEKWQRRGVATALLKRLMETATKEGFSKISSMDASKNLAMDGLATSMGFTCRVDEKHGPRIFHEYVLVQ	not soluble
MACERLGGQSGAADVDAAAPAMAAVNLTLGFAGKTVLDQVSMGFPARAVTSLMGPTGSGKTTFLRTLNRMNDKVSGYRYSGDVLLGGRSIFNYRDVLEFRRRVGMLFQRPNPFPMSIMDNVLAGVRAHKLVPRKEFRGVAQARLTEVGLWDAVKDRLSDSPFRLSGGQQQLLCLARTLAVNPEVLLLDEPTSALDPTTTEKIEEFIRSLADRLTVIIVTHNLAQAARISDRAALFFDGRLVEEGPTEQLFSSPKHAETARYVAGLSGDVKDAKRGN	not soluble
MSLFIHIVGPGDSLFSIGRRYGASVDQIRGVNGLDETNIVPGQALLIPLYVYTVQPRDTLTAIAAKAFVPLERLRAANPGISPNALQAGAKITIPSISNYIAGTLSFYVLRNPDLDRELINDYAPYSSSISIFEYHIAPNGDIANQLNDAAAIETTWQRRVTPLATITNLTSGGFSTEIVHQVLNNPTARTNLVNNIYDLVSTRGYGGVTIDFEQVSAADRDLFTGFLRQLRDRLQAGGYVLTIAVPAKTSDNIPWLRGYDYGGIGAVVNYMFIMAYDWHHAGSEPGPVAPITEIRRTIEFTIAQVPSRKIIIGVPLYGYDWIIPYQPGTVASAISNQNAIERAMRYQAPIQYSAEYQSPFFRYSDQQGRTHEVWFEDVRSMSRKMQIVREYRLQAIGAWQLTLAEGHHHHHH	soluble
MTALSQLYPQPLWQWFEQICAIPHPSKHEQSLSQHIQAWAKQKQLDVVEDAVGNVIIRKAATPGMEDRKVVVIQAHIDMVPQKNADKVHDFIKDPIEAYVDGDWVKAKGTTLGADNGIGMASALAILGSDDIKHGPLEVLLTIDEEAGMTGAFGLQAGMLNAEILINTDSEQEGEIYMGCAGGVDAQITLPMVWQASEQSYASFSLHLSGLKGGHSGVNIHLGRGNANKILARFLFENADELALELTQFTGGSLRNAIPREANISFMLPAENIDALKEKVHAFEALMRAELAIADPDLRLVLSNIATPKRVMSENSQNTLIDLLHVCPNGVMRMSDEVTGVTETSLNVGVISTNDEEVGILCLIRSLIDSGRSQVEGMLNALTNLAGADVEFSGAYPGWKPDNTSPVMAIVRETYESIYHKEPVIMVIHAGLECGLFKKPYPEMDMVSIGPTIRYPHGPDEMVNITTVGQYWDLLVAVLERIPVKALEHHHHHH	not soluble
MTGVRQDAWTKEEDELLANVVLQYIREGGTQLEAFAEVGRRLSRTAAACGFRWNSCVRKQYKEEIEQAKQERKMRKKETPSTKESEGQAKVETAVKSHLSWAEVLAFLQAEEQKARDARRTADENRALKNDMEQLQQMVTKLQMEKESLQKQLAAIQEEYKTLLSIMERARKMVTDSGKPAPNAVAEGVDEG	not soluble
QGGPVEILPYLFLGSCSHSSDLQGLQACGITAVLNVSASCPNHFEGLFRYKSIPVEDNQMVEISAWFQEAIGFIDWVKNSGGRVLVHSQAGISRSATICLAYLMQSRRVRLDEAFDFVKQRRGVISPNFSFMGQLLQFETQVLCH	soluble
VANITFSSPVMAKDVTVYAVAGDRGTILAVAKSHSIPIPFDCQDGECGSCLVQVEHFNPKAKAAVALTEKEKEVLRQLGKITKEEIVDAEVNDIPPRYRLACQCFVRNEDILVKFEGDKTKPQRLAVTPAAAHYKGGMEINTPQEFFSYAAKVEEDAALHYDSLAKAMADAGNAPVAKLFAQLAEFSRLHLAEVKSRAGSIDLSKSVPPDYAWPDHATPERAAVWASDTTLTRLGALKAALQGERRGYEFYRAVEATTKSSEVAAAAKEFVNEEAEHVRILEAWITQEEWSLKHAAKAAENA	not soluble
MGSDKIHHHHHHMSPDVYLQIFETRRPQLLRLAYRMLGSHAEAEDVVQEAWIRWQAADQAQIAIPAAWLNRVVSRLCLDLMRSARHRRESYIGPWLPEPLIEEEDADHRPDNLTLSLMMALERLSPLERAAFLLHDVFGQSFDEVALALDRSPSAARQLAVRARAHVHIDRPRYKVEREAAEGLTRAFFEACKTGDAAVLSGLLAEDAVLHSDGGGKVYNLLNVIVGAQKLLRMFTSLSRKRGDEMEFVQFTLIDALPGYVWRMGDQIQTTALEVEDGRITRVYTTRNPDKLTRIRLN	not soluble
MVDLNKYKRFVETHGMKIPVLSLEYEYQAYLKLGRVEKAETLRKWLNERKG	not soluble
MGSDKIHHHHHHMTARHSDCVHCLMRGQSIFAGLSREEVCELGMDVQDIHVPAGTTIYHEGDPAQYAYTLRQGGIKLVKSLPNGHAQIVRLLHHGDLLGFEGLRTDRHRHSAITLTGTDLCRLELRALDALSQRLPAVREAIFARWQQALQEAEDRIVELGAKKADARLATFLCQWVGAYPQQRAAPFPLTRQDLGEFLGLSTEHVSRIMADLKRHRLLHEHKGQIEIPDPQNLFLYASSDGTRA	not soluble
MGSDKIHHHHHHMPRNMPCPDNTMPSLSFWWRYPYLRVLVVVLLMTSQPCAISAQASTSPSVAQSSLRHLSDQLPIVGVWLTNSPSPLYYSRNLMHKAVKDLYSAGFTALYLNVWSRGSTFHRSNYAPVEGPLQKAGLALDPICTLSREGHARGMKVMPWFEYGLMEPDDAEVVKLHPDWVLARADGNPVVKMHGNHQRVWLNPAHPEVRARFIGVVIEVMKRCKMDGVQLDDHFAWPVKLGYDPYTVALYQQETGSSPPRDYSDRFWMQWRRRKLTGLLRELRQALEKEKLPVNISLAPGPFRFAYNNWLQDWELWTVGKLIDELVVQNYAYSLKGFAKDLDQPALRKAPQLGVPVHIGVLAGFGKRTTPMPILAEKVRMAAERGHGVIYFYWEGLWGQHAGIEGGIQRLRQFKQLHEKKN	not soluble
MYKLSGKAVEDFRGIYDYTLGKFGDEQADRYTDSLGTFLDTLSQMPEIGQDYDAIPEVKKIAFRFHTVYYVIRVDDILIARILHQLMEPRRHW	soluble
AHHHHHHGSTKRVKVITDPEVIKVMLEDTRRKILQLLRNREMTISQLSEILGKMPQTIYHHIEKLKEAGLVEVKRTEMKGNLVEKYYGRTADVFYINLYMGDEELRYLARSRLKTKLDIFKKLGYKFDEEELLNVMDRILEKEHEVKVEISKEIENVEDSLKEFSNEDIIHAIEWLAMARLAQDEEYIELVKKLGQILKR	soluble
MVYSVPMMCAQDLRRSAMLDVVVAGGGYVGLSAAVAIKQAAPHLNVQVIEAAPDDVWKKDVRASAVIAAATRMLDVFGIWNEIEPEAQPIHKMVVTDSKTADPVRPVFLTFDGAVEEGRPFAHMVPNVAMVSALRGLCERIGIKIRHGISVSGFTAGPQSTAITLSDGTSLEARLLIACDGVRSALRDMAGIKTVHWAYDQSGIVTTVEHERPHEGCAEEHFLPSGPFAVLPLKGNRSSLVWTERTADAVRLVASDDLVFEEELERRFGHKLGPVRPVGPRRAFPLGLTLARSFVAPRFALAGDAAHGIHPISGQGLNLGFKDVAALAETVVEADRLGLDIGSLNVLERYQSWRRFDTLRMGVTTDVLNRLFSNDVGPIRVMRDFGLGVVDRLPGLKSYFIGQAAGTTDANAPRLLAGEALLEHHHHHH	not soluble
MYWLFKSEPFKWSWEMQKARGEKGEQWDGVRNYQARNNMRAMKLGDKGFFYHSNEGLEVVGIVEVCALAHPDSTTDDPRWECVDIKAVRDMPKPVTLKDVKANPRLQDMSLVTSMRLSVQPVTEDEWIEVCRMGGLDANDILEHHHHHH	soluble
